# Reference: patent publication US20190112340A1
# How the values were obtained:
# [1] = biological target: sc9-10 DS-Cav1 N183GC,N428C; experiment: BLI (Octet), antibody reactivity over time at 60 °C
# [2] = biological target: RSV F DS-Cav1 (human RSV subtype A (strain A2)) (UniProt P03420); experiment: as above
# [3] = biological target: sc9-10 DS-Cav1 A149C, Y458C S46G-N67I-E92D-S215P-K465Q (A2); experiment: as above
# [4] = biological target: sc9-10 DS-Cav1 A149C, Y458C S46G-S215P-K465Q (A2); experiment: as above
# [5] = biological target: sc9-10 DS-Cav1 A149C, Y458C S46G-E92D-S215P-K465Q (A2); experiment: as above
# [6] = biological target: sc9-10 DS-Cav1 N183GC, N428C S46G-N67I-E92D-S215P-K465Q (A2); experiment: as above
# [7] = biological target: sc9-10 A DS-Cav1 A149C, Y458C; experiment: as above
# sc9-10 Cav1only 99-360 = experiment: ELISA after 1 week at 4 °C
# [8] = biological target: RSV F DS-Cav1 (human RSV subtype A (strain A2)) (UniProt P03420); experiment: ELISA after 1 week at 4 °C
# RSVF dFP = experiment: ELISA after 1 week at 4 °C
# sc9-10 Cav1only 100-360 = experiment: ELISA after 1 week at 4 °C
# sc9-10 Cav1only 98-360 = experiment: ELISA after 1 week at 4 °C
# [9] = biological target: sc9-10 N183GC N428C Long CAV1only; experiment: ELISA after 1 week at 4 °C
# sc9-10 Cav1only 98-361 = experiment: ELISA after 1 week at 4 °C
# sc9-10 Cav1only 100-361 = experiment: ELISA after 1 week at 4 °C
# [10] = biological target: sc9-10 A149C Y458C Long CAV1only; experiment: ELISA after 1 week at 4 °C
# sc9-10 Cav1only 369-455 = experiment: ELISA after 1 week at 4 °C
# sc9-10 Cav1only = experiment: ELISA after 1 week at 4 °C
# RSVF Cav1only = experiment: ELISA after 1 week at 4 °C
# sc9-10 Cav1only 98-362 = experiment: ELISA after 1 week at 4 °C
# sc9-10 Cav1only 146-458 = experiment: ELISA after 1 week at 4 °C
# sc9-10 Cav1only 99-362 = experiment: ELISA after 1 week at 4 °C
# sc9-10 Cav1only 100-362 = experiment: ELISA after 1 week at 4 °C
# sc9-10 Cav1only 99-361 = experiment: ELISA after 1 week at 4 °C
# sc9 DS-Cav1-105Q = experiment: BLI (Octet), F on Ni-NTA tips, Fab in solution
# [11] = biological target: sc9-10 DS-Cav1 N183GC,N428C; experiment: BLI (Octet), F on Ni-NTA tips, Fab in solution
# [12] = biological target: RSV F DS-Cav1 (human RSV subtype A (strain A2)) (UniProt P03420); experiment: BLI (Octet), F on Ni-NTA tips, Fab in solution
# [13] = biological target: sc9-10 DS-Cav1 A149C, Y458C S46G-N67I-E92D-S215P-K465Q (A2); experiment: BLI (Octet), F on Ni-NTA tips, Fab in solution
# sc9-24 DS-Cav1 = experiment: BLI (Octet), F on Ni-NTA tips, Fab in solution
# [14] = biological target: RSV F sc9 DS-Cav1 (human RSV subtype A (strain A2)); experiment: BLI (Octet), F on Ni-NTA tips, Fab in solution
# [15] = biological target: sc9-10 DS-Cav1 Q98C, Q361C L95M-I221M-R429K (B18537); experiment: BLI (Octet), F on Ni-NTA tips, Fab in solution
# [16] = biological target: RSV F sc9-10 DS-Cav1 (human RSV subtype A (strain A2)); experiment: BLI (Octet), F on Ni-NTA tips, Fab in solution
# [17] = biological target: sc9-10 DS-Cav1 Q98C, Q361C S46G-E92D-L95M-S215P-I217P-I221M-R429K-K465Q (Long (VR26)); experiment: BLI (Octet), F on Ni-NTA tips, Fab in solution
# sc8 DS-Cav1 = experiment: BLI (Octet), F on Ni-NTA tips, Fab in solution
# [18] = biological target: sc9-10 DS-Cav1 A149C, Y458C S46G-S215P-K465Q (A2); experiment: BLI (Octet), F on Ni-NTA tips, Fab in solution
# [19] = biological target: sc9-10 DS-Cav1 A149C, Y458C S46G-E92D-S215P-K465Q (A2); experiment: BLI (Octet), F on Ni-NTA tips, Fab in solution
# sc9-19 DS-Cav1 = experiment: BLI (Octet), F on Ni-NTA tips, Fab in solution
# [20] = biological target: sc9-10 DS-Cav1 N183GC, N428C S46G-N67I-E92D-S215P-K465Q (A2); experiment: BLI (Octet), F on Ni-NTA tips, Fab in solution
# [21] = biological target: sc9-10 A DS-Cav1 A149C, Y458C; experiment: BLI (Octet), F on Ni-NTA tips, Fab in solution
# [22] = biological target: RSV F sc9-9 DS-Cav1 (human RSV subtype A (strain A2)) (UniProt P03420); experiment: BLI (Octet), F on Ni-NTA tips, Fab in solution
# [23] = biological target: bRSV F 391-2 sc9 DS-Cav1 Q98C Q361C (bovine RSV, strain 391-2) (UniProt P22167); experiment: Fab binding to purified bRSV F trimer (Octet BLI as in Example 1)
# [24] = biological target: bRSV F RB94 DS-Cav1 (bovine RSV, strain RB94) (UniProt P23728); experiment: as above
# [25] = biological target: bRSV F strain 391-2 sc9-10, DS-Cav1, Q98C-Q361C (bovine RSV, strain 391-2); experiment: as above
# [26] = biological target: bRSV F ATue51908 sc9-10 DS-Cav1 A149C Y458C (bovine RSV, strain ATue51908 (NP_048055.1)); experiment: as above
# [27] = biological target: bRSV F ATue51908 DS-Cav1 (bovine RSV, strain ATue51908) (UniProt P22167); experiment: as above
# [28] = biological target: bRSV F 391-2 DS-Cav1 (bovine RSV, strain 391-2) (UniProt P22167); experiment: as above
# sc11 DS-Cav1 = experiment: BLI (Octet), F on Ni-NTA tips, Fab in solution
# sc10 DS-Cav1 = experiment: BLI (Octet), F on Ni-NTA tips, Fab in solution
Substance,ELISA signal (antigenicity) (sc9-10 Cav1only 99-360),ELISA signal (antigenicity) [8],ELISA signal (antigenicity) (RSVF dFP),ELISA signal (antigenicity) (sc9-10 Cav1only 100-360),ELISA signal (antigenicity) (sc9-10 Cav1only 98-360),Kd (sc9 DS-Cav1-105Q) [nM],Kd [11] [nM],Kd [12] [nM],Kd [13] [nM],Kd (sc9-24 DS-Cav1) [nM],Kd [14] [nM],Kd [15] [nM],Kd [16] [nM],Kd [17] [nM],Kd [18] [nM],Kd [19] [nM],Kd (sc9-19 DS-Cav1) [nM],Kd [20] [nM],Kd [21] [nM],Kd [22] [nM],other results
D25 antibody,1.4,2.13,0.902,1.76,1.14,,,,,,,,,,,,,,,,T1/2 of D25 reactivity at 60 °C [1]: 42.4 h; T1/2 of D25 reactivity at 60 °C [2]: 3.2 h; T1/2 of D25 reactivity at 60 °C [3]: 26.4 h; T1/2 of D25 reactivity at 60 °C [4]: 23.4 h; T1/2 of D25 reactivity at 60 °C [5]: 26.7 h; T1/2 of D25 reactivity at 60 °C [6]: 23.3 h; T1/2 of D25 reactivity at 60 °C [7]: 16.5 h
Mota (antibody),1.11,1.72,3.42,1.61,1.04,,,,,,,,,,,,,,,,ELISA signal (antigenicity) [9]: 2.07; ELISA signal (antigenicity) (sc9-10 Cav1only 98-361): 2.24; ELISA signal (antigenicity) (sc9-10 Cav1only 100-361): 2.8; ELISA signal (antigenicity) [10]: 2.55; ELISA signal (antigenicity) (sc9-10 Cav1only 369-455): 2.5; ELISA signal (antigenicity) (sc9-10 Cav1only): 3.59; ELISA signal (antigenicity) (RSVF Cav1only): 3.35; ELISA signal (antigenicity) (sc9-10 Cav1only 98-362): 0.828; ELISA signal (antigenicity) (sc9-10 Cav1only 146-458): 1.95; ELISA signal (antigenicity) (sc9-10 Cav1only 99-362): 1.38; ELISA signal (antigenicity) (sc9-10 Cav1only 100-362): 1.53; ELISA signal (antigenicity) (sc9-10 Cav1only 99-361): 2.71
AM14 Fab,,,,,,46.2,787,3.3,1,25.1,33.1,18.5,6.6,33.9,35.1,15.9,25.6,2210,6.3,3.3,Kd (sc8 DS-Cav1): 1330 nM; Kd [23]: 8.6 nM; Kd [24]: 4.9 nM; Kd [25]: 12.8 nM; Kd [26]: 12.8 nM; Kd [27]: 4.8 nM; Kd [28]: 1.8 nM
5C4 (Fab),,,,,,28.8,14,13,127,20.8,31.3,101,26.2,35.8,92.2,315,22.6,79.7,32.1,17.9,Kd (sc11 DS-Cav1): 58.8 nM; Kd (sc10 DS-Cav1): 38.1 nM
MPE8 (antibody),0.625,2.16,2.77,1.28,0.734,,,,,,,,,,,,,,,,T1/2 of MPE8 reactivity at 60 °C [1]: 48.3 h; T1/2 of MPE8 reactivity at 60 °C [2]: 2 h; T1/2 of MPE8 reactivity at 60 °C [3]: 12.7 h; T1/2 of MPE8 reactivity at 60 °C [4]: 11.2 h; T1/2 of MPE8 reactivity at 60 °C [5]: 12.6 h; T1/2 of MPE8 reactivity at 60 °C [6]: 35.1 h; T1/2 of MPE8 reactivity at 60 °C [7]: 14.4 h; ELISA signal (antigenicity) [9]: 0.228; ELISA signal (antigenicity) (sc9-10 Cav1only 98-361): 1.4; ELISA signal (antigenicity) (sc9-10 Cav1only 100-361): 0.786; ELISA signal (antigenicity) [10]: 2.5; ELISA signal (antigenicity) (sc9-10 Cav1only 369-455): 2.32; ELISA signal (antigenicity) (sc9-10 Cav1only): 3.54; ELISA signal (antigenicity) (RSVF Cav1only): 3.08; ELISA signal (antigenicity) (sc9-10 Cav1only 98-362): 0.845; ELISA signal (antigenicity) (sc9-10 Cav1only 146-458): 1.85; ELISA signal (antigenicity) (sc9-10 Cav1only 99-362): 1.28; ELISA signal (antigenicity) (sc9-10 Cav1only 100-362): 0.298; ELISA signal (antigenicity) (sc9-10 Cav1only 99-361): 2.66
MPE8 Fab,,,,,,0.8,0.1,0.5,0.2,0.8,0.8,0.2,0.8,0.2,0.4,0.2,1,0.2,0.1,< 0.01,Kd (sc11 DS-Cav1): 1.6 nM; Kd (sc10 DS-Cav1): 0.8 nM; Kd (sc8 DS-Cav1): 0.5 nM; Kd [23]: 0.4 nM; Kd [24]: 0.2 nM; Kd [25]: 0.8 nM; Kd [26]: 0.5 nM; Kd [27]: 0.2 nM; Kd [28]: 0.2 nM
AM14 antibody,0.0553,1.71,0.05,0.344,0.199,,,,,,,,,,,,,,,,T1/2 of AM14 reactivity at 60 °C [1]: 33.8 h; T1/2 of AM14 reactivity at 60 °C [2]: 1.4 h; T1/2 of AM14 reactivity at 60 °C [3]: 7.5 h; T1/2 of AM14 reactivity at 60 °C [4]: 6 h; T1/2 of AM14 reactivity at 60 °C [5]: 8.3 h; T1/2 of AM14 reactivity at 60 °C [6]: 27.1 h; T1/2 of AM14 reactivity at 60 °C [7]: 7.8 h; ELISA signal (antigenicity) [9]: 0.0514; ELISA signal (antigenicity) (sc9-10 Cav1only 98-361): 0.356; ELISA signal (antigenicity) (sc9-10 Cav1only 100-361): 0.0969; ELISA signal (antigenicity) [10]: 0.211; ELISA signal (antigenicity) (sc9-10 Cav1only 369-455): 0.0785; ELISA signal (antigenicity) (sc9-10 Cav1only): 3.31; ELISA signal (antigenicity) (RSVF Cav1only): 2.81; ELISA signal (antigenicity) (sc9-10 Cav1only 98-362): 0.516; ELISA signal (antigenicity) (sc9-10 Cav1only 146-458): 0.102; ELISA signal (antigenicity) (sc9-10 Cav1only 99-362): 0.805; ELISA signal (antigenicity) (sc9-10 Cav1only 100-362): 0.0541; ELISA signal (antigenicity) (sc9-10 Cav1only 99-361): 2.64
AM22 (Fab),,,,,,< 0.01,0.2,< 0.01,0.2,0.3,< 0.01,0.1,< 0.01,0.1,0.5,0.3,0.06,0.4,0.1,2.8,Kd (sc11 DS-Cav1): 1.6 nM; Kd (sc10 DS-Cav1): 0.3 nM; Kd (sc8 DS-Cav1): 3.9 nM
